Reference: paper PMC11284795

Target: human serum albumin (HSA) (human) (UniProt P02768)

Chain of FGF21 analog 22: Ala[Gln121, Leu168, Cys180]FGF21 with a C16 fatty diacid side chain on 180C (Q9NSA1 other isoform, or with tags, fused parts or gaps): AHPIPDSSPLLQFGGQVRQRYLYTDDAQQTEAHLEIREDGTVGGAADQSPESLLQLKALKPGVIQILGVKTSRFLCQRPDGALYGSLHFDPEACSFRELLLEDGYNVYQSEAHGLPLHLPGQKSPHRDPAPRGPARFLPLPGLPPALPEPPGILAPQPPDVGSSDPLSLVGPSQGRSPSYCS
Chain of FGF21 analog 6 (-1A, 121Q, 167C, 168L; cysteamine on 167C) (Q9NSA1 other isoform, or with tags, fused parts or gaps): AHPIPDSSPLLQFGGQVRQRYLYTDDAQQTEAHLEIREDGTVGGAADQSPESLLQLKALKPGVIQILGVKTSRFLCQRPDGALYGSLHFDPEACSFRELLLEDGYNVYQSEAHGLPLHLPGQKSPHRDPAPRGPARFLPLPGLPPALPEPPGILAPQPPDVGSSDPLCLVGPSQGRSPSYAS
Chain of Met-FGF19 (25) (O95750 other isoform, or with tags, fused parts or gaps): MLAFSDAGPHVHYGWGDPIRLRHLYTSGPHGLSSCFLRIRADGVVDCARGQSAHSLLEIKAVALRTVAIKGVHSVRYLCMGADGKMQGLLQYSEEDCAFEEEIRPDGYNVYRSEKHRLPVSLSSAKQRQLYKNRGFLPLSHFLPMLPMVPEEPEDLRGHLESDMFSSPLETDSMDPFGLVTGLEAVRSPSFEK
Chain of FGF21 (0) (Q9NSA1 29-209): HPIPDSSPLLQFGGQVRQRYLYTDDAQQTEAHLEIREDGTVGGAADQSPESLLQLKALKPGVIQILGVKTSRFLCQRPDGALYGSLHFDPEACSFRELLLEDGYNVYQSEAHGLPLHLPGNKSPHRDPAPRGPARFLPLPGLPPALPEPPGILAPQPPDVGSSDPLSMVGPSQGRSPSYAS
Chain of FGF21 analog 9 (-1A, 121Q, 168L, 172C; cysteamine on 172C) (Q9NSA1 other isoform, or with tags, fused parts or gaps): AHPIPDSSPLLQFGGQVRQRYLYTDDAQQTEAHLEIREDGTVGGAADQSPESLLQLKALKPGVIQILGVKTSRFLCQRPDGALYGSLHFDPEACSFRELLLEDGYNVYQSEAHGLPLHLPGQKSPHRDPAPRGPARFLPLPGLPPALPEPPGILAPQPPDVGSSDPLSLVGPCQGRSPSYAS
Chain of FGF21 analog 7 (-1A, 121Q, 168L, 170C; cysteamine on 170C) (Q9NSA1 other isoform, or with tags, fused parts or gaps): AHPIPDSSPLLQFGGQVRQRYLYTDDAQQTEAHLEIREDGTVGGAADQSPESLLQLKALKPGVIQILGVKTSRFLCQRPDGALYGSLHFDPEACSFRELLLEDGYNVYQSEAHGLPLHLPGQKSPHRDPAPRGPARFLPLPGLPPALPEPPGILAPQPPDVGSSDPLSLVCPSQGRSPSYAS
Chain of FGF21 analog 13 (-1A, 121Q, 168L, 178C; cysteamine on 178C) (Q9NSA1 other isoform, or with tags, fused parts or gaps): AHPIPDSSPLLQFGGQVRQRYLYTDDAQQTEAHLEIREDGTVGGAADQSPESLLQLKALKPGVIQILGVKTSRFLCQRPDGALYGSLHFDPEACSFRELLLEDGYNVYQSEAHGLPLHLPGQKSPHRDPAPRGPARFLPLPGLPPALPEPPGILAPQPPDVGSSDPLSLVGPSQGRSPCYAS
Chain of FGF21 analog 12 (-1A, 121Q, 168L, 176C; cysteamine on 176C) (Q9NSA1 other isoform, or with tags, fused parts or gaps): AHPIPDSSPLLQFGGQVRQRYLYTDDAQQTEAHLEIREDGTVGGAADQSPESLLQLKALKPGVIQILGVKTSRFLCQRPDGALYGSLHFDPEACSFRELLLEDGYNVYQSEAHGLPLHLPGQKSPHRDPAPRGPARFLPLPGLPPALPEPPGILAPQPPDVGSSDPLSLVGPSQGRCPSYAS
Chain of FGF21 analog 3 (-1A, 121Q) (Q9NSA1 28-209 N149Q): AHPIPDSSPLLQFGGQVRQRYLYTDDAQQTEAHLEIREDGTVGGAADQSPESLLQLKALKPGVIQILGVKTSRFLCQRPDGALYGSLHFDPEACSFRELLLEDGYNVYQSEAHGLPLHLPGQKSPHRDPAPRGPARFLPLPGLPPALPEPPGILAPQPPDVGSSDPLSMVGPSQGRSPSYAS
Chain of FGF21 analog 8 (-1A, 121Q, 168L, 171C; cysteamine on 171C) (Q9NSA1 other isoform, or with tags, fused parts or gaps): as the sequence (Q9NSA1 28-209 N149Q) above, with M169L, P172C counted along it
Chain of FGF21 analog 2 (-1A) (Q9NSA1 28-209): as the sequence (Q9NSA1 28-209 N149Q) above, with Q122N counted along it
Chain of FGF21 analog 5 (-1A, 71C, 121Q, 168L; C18 fatty diacid on 71C) (Q9NSA1 other isoform, or with tags, fused parts or gaps): as the sequence (Q9NSA1 28-209 N149Q) above, with S72C, M169L counted along it
Chain of cysteamine protected Ala[Gln121, Leu168, Cys180]FGF21 (16) (Q9NSA1 other isoform, or with tags, fused parts or gaps): as the sequence (Q9NSA1 28-209 N149Q) above, with M169L, A181C counted along it
Chain of FGF21 analog 19 (-1A, 121Q, 168L, 181C; cysteamine on 181C) (Q9NSA1 other isoform, or with tags, fused parts or gaps): as the sequence (Q9NSA1 28-209 N149Q) above, with M169L, S182C counted along it
Chain of FGF21 analog 14 (-1A, 121Q, 168L, 179C; cysteamine on 179C) (Q9NSA1 other isoform, or with tags, fused parts or gaps): as the sequence (Q9NSA1 28-209 N149Q) above, with M169L, Y180C counted along it
Chain of FGF21 analog 10 (-1A, 121Q, 168L, 174C; C18 fatty diacid on 174C) (Q9NSA1 other isoform, or with tags, fused parts or gaps): as the sequence (Q9NSA1 28-209 N149Q) above, with M169L, G175C counted along it
Chain of FGF21 analog 11 (-1A, 121Q, 168L, 174C; cysteamine on 174C) (Q9NSA1 other isoform, or with tags, fused parts or gaps): as the sequence (Q9NSA1 28-209 N149Q) above, with M169L, G175C counted along it

Row | potency (EC50) of ERK phosphorylation in HEK293/human KLB cells with 0.1 and 1.0% HSA: 3.7 and 5.2 nM (5.8 nM without HSA); no HSA-dependent reduction of potency | potency (EC50) of ERK phosphorylation in HEK293/human KLB cells with 0.1, 1.0 and 1.5% HSA: 4.0, 5.8 and 8.6 nM (5.2 nM without HSA); no HSA-dependent reduction of potency | potency (EC50) of ERK phosphorylation in HEK293/human KLB cells with 0.1, 1.0 and 1.5% HSA: 4.2, 52 and 92 nM (3.5 nM without HSA) | potency (EC50) of ERK phosphorylation in HEK293/human KLB cells with 0.1 and 1.5% HSA: 47 and 173 nM (3.8 nM without HSA) | Substance
1 | 5.2 nM |  |  |  | FGF21 analog 20 (-1A, 121Q, 168L, 180C; C12 fatty diacid on 180C) (from UniProt Q9NSA1 29-209) (ligand)
2 |  | 8.6 nM |  |  | FGF21 analog 21 (-1A, 121Q, 168L, 180C; C14 fatty diacid on 180C) (from UniProt Q9NSA1 29-209) (ligand)
3 |  |  | 92 nM |  | FGF21 analog 22: Ala[Gln121, Leu168, Cys180]FGF21 with a C16 fatty diacid side chain on 180C (from UniProt Q9NSA1 29-209) (ligand)
4 |  |  |  | 173 nM | FGF21 analog 23 (-1A, 121Q, 168L, 180C; C20 fatty diacid on 180C) (from UniProt Q9NSA1 29-209) (ligand)

Target: human beta-klotho (KLB) on HEK293 cells (human) (UniProt Q86Z14)

Row | potency (EC50) of ERK phosphorylation in HEK293 cells transfected with human KLB, 0% HSA | Substance
5 | 5.8 nM | FGF21 analog 20 (-1A, 121Q, 168L, 180C; C12 fatty diacid on 180C) (from UniProt Q9NSA1 29-209) (ligand)
6 | 5.2 nM | FGF21 analog 21 (-1A, 121Q, 168L, 180C; C14 fatty diacid on 180C) (from UniProt Q9NSA1 29-209) (ligand)
7 | 3.5 nM | FGF21 analog 22: Ala[Gln121, Leu168, Cys180]FGF21 with a C16 fatty diacid side chain on 180C (from UniProt Q9NSA1 29-209) (ligand)
8 | 3.8 nM | FGF21 analog 23 (-1A, 121Q, 168L, 180C; C20 fatty diacid on 180C) (from UniProt Q9NSA1 29-209) (ligand)

Target: FGFR4/KLB: ectodomain of human FGFR4 fused to Fc, with human beta-klotho (human) (UniProt P22455)

Row | potency EC50 of ERK phosphorylation in Ba/F3 cells overexpressing human KLB and FGFR4 (chimera with the kinase domain of FGFR1c), 0% HSA | Substance
9 | 2.3 nM | Met-FGF19 (25) (from UniProt O95750 25-216) (ligand)

Target: human beta-klotho (KLB) on HEK293 cells (human) (UniProt Q86Z14)
Remark: another data set of the same source

Row | potency (EC50) of ERK phosphorylation in HEK293 cells transfected with human KLB, without HSA | potency (EC50) of ERK phosphorylation in HEK293 cells transfected with human KLB, without HSA (with 0.1 and 1.0% HSA: 1.8 and 2.1 nM, Table 3) | Substance
10 | 1 nM |  | FGF21 (0) (from UniProt Q9NSA1 29-209) (ligand)
11 | 1.3 nM |  | FGF21 analog 2 (-1A) (from UniProt Q9NSA1 29-209) (ligand)
12 | 1 nM |  | FGF21 analog 3 (-1A, 121Q) (from UniProt Q9NSA1 29-209) (ligand)
13 | 4.8 nM |  | FGF21 analog 5 (-1A, 71C, 121Q, 168L; C18 fatty diacid on 71C) (from UniProt Q9NSA1 29-209) (ligand)
14 | 1.4 nM |  | FGF21 analog 6 (-1A, 121Q, 167C, 168L; cysteamine on 167C) (from UniProt Q9NSA1 29-209) (ligand)
15 | 3.4 nM |  | FGF21 analog 7 (-1A, 121Q, 168L, 170C; cysteamine on 170C) (from UniProt Q9NSA1 29-209) (ligand)
16 | 2.2 nM |  | FGF21 analog 8 (-1A, 121Q, 168L, 171C; cysteamine on 171C) (from UniProt Q9NSA1 29-209) (ligand)
17 | 3.3 nM |  | FGF21 analog 9 (-1A, 121Q, 168L, 172C; cysteamine on 172C) (from UniProt Q9NSA1 29-209) (ligand)
18 | 1.5 nM |  | FGF21 analog 10 (-1A, 121Q, 168L, 174C; C18 fatty diacid on 174C) (from UniProt Q9NSA1 29-209) (ligand)
19 | 6.1 nM |  | FGF21 analog 11 (-1A, 121Q, 168L, 174C; cysteamine on 174C) (from UniProt Q9NSA1 29-209) (ligand)
20 | 160 nM |  | FGF21 analog 12 (-1A, 121Q, 168L, 176C; cysteamine on 176C) (from UniProt Q9NSA1 29-209) (ligand)
21 | 90 nM |  | FGF21 analog 13 (-1A, 121Q, 168L, 178C; cysteamine on 178C) (from UniProt Q9NSA1 29-209) (ligand)
22 | 67 nM |  | FGF21 analog 14 (-1A, 121Q, 168L, 179C; cysteamine on 179C) (from UniProt Q9NSA1 29-209) (ligand)
23 | 24 nM |  | FGF21 analog 19 (-1A, 121Q, 168L, 181C; cysteamine on 181C) (from UniProt Q9NSA1 29-209) (ligand)
24 |  | 2.5 nM | cysteamine protected Ala[Gln121, Leu168, Cys180]FGF21 (16) (from UniProt Q9NSA1 29-209) (ligand)
